This is an account of results in publication PMC6821933, “IMP-68, a Novel IMP-Type Metallo-β-Lactamase in Imipenem-Susceptible Klebsiella pneumoniae” (mSphere, 2019).

Broadly, the Km is the concentration of substrate that gives half-maximal velocity. As a reminder, the kcat is the maximal rate divided by the concentration of active sites. As a reminder, the kcat/Km is the second-order rate constant that governs catalysis at low substrate concentration.

Data set [1] deals with T1, IMP-11.
T1 construct: gene blaIMP-11; signal peptide (first 19 aa) removed; His tag cut off with PreScission protease; expressed in E. coli Rosetta II
Put plainly: spectrophotometric initial hydrolysis rates, […] nm, Michaelis-Menten. The data set is classed as biochemical. The conditions noted are these: 50 mM sodium phosphate pH 7.0, 50 μM ZnCl2, 24 ± 1 °C.

Data set [2] relates to T1, IMP-11. The data set is described as above. Format: biochemical. Particulars: 50 mM sodium phosphate pH 7.0, 50 μM ZnCl2, 24 ± 1 °C. This is another data set of the same source.
For data set [3], the system named is T1, IMP-11. The data set is described as above. The data set is classed as biochemical. The conditions noted are these: 50 mM sodium phosphate pH 7.0, 50 μM ZnCl2, 24 ± 1 °C. This is another data set of the same source.
Data set [4] concerns CC(C)(O/N=C(\C(=O)N[C@@H]1C(=O)N2C(C(=O)[O-])=C(C[n+]3ccccc3)CS[C@H]12)c1csc(N)n1)C(=O)O. Briefly: purified protein. The data set is classed as biochemical, Klebsiella pneumoniae. The conditions noted are these: 50 mM sodium phosphate pH 7.0, 50 μM ZnCl2, 24 ± 1 °C, 24.0 °C.
For data set [5], the system named is CC1(C)S[C@@H]2[C@H](NC(=O)[C@H](N)c3ccccc3)C(=O)N2[C@H]1C(=O)O. Put plainly: purified protein. The data set is classed as biochemical, Klebsiella pneumoniae. Particulars: 50 mM sodium phosphate pH 7.0, 50 μM ZnCl2, 24 ± 1 °C, 24.0 °C.
Data set [6] deals with CO/N=C(\C(=O)N[C@@H]1C(=O)N2C(C(=O)O)=C(COC(C)=O)CS[C@H]12)c1csc(N)n1. Briefly: purified protein. The conditions noted are these: 50 mM sodium phosphate pH 7.0, 50 μM ZnCl2, 24 ± 1 °C, 24.0 °C. Format: biochemical, Klebsiella pneumoniae.
Data set [7] deals with C[C@@H](O)[C@H]1C(=O)N2C(C(=O)O)=C(SCCN=CN)C[C@H]12. Put plainly: purified protein. The data set is classed as biochemical, Klebsiella pneumoniae. The conditions noted are these: 50 mM sodium phosphate pH 7.0, 50 μM ZnCl2, 24 ± 1 °C, 24.0 °C.
Data set [8] concerns C[C@@H](O)[C@H]1C(=O)N2C(C(=O)O)=C(S[C@@H]3CN[C@H](C(=O)N(C)C)C3)[C@H](C)[C@H]12. Put plainly: purified protein. The data set is classed as biochemical, Klebsiella pneumoniae. The conditions noted are these: 50 mM sodium phosphate pH 7.0, 50 μM ZnCl2, 24 ± 1 °C, 24.0 °C.

Consider `C[C@@H](O)[C@H]1C(=O)N2C(C(=O)O)=C(SCCN=CN)C[C@H]12` [Imipenem], for which the Km in the data set on IMP-11 [1] is 41 ± 18.4 µM.
In the case of `CC1(C)S[C@@H]2[C@H](NC(=O)[C@H](N)c3ccccc3)C(=O)N2[C@H]1C(=O)O` [Ampicillin], the Km in the data set on IMP-11 [2] came out at 830 ± 248 µM.
Take `CO/N=C(\C(=O)N[C@@H]1C(=O)N2C(C(=O)O)=C(COC(C)=O)CS[C@H]12)c1csc(N)n1` [Cefotaxime]: the Km in the data set with IMP-11 [3] was 11.8 ± 2.2 µM.
Same read-out and setting: in the case of `CC(C)(O/N=C(\C(=O)N[C@@H]1C(=O)N2C(C(=O)[O-])=C(C[n+]3ccccc3)CS[C@H]12)c1csc(N)n1)C(=O)O` [Ceftazidime] it was 232 ± 18.9 µM.
For `C[C@@H](O)[C@H]1C(=O)N2C(C(=O)O)=C(S[C@@H]3CN[C@H](C(=O)N(C)C)C3)[C@H](C)[C@H]12` [Meropenem], the Km with IMP-11 [1] was 14.8 ± 2.8 µM.
On to IMP-68 (Klebsiella pneumoniae), for which the Km in data set [4] came out at 326 ± 131 µM; in data set [5], 465 ± 200 µM; in data set [6], 10.3 ± 2.3 µM; in data set [7], 347 ± 52.2 µM; in data set [8], 10.1 ± 0.94 µM. Moreover, the kcat was determined as 3.9 ± 2.1 s⁻¹ in data set [4]; 1.7 ± 0.44 s⁻¹ in data set [5]; 25.7 ± 1.3 s⁻¹ in data set [6]; 36.7 ± 7.8 s⁻¹ in data set [7]; 9.7 ± 1.7 s⁻¹ in data set [8]. The kcat/Km in data set [4] is 12000 M⁻¹ s⁻¹; in data set [5], 3700 M⁻¹ s⁻¹; in data set [6], 2.5e+06 M⁻¹ s⁻¹; in data set [7], 110000 M⁻¹ s⁻¹; in data set [8], 890000 M⁻¹ s⁻¹.
